Assay results reported in doi:10.1101/2021.03.17.435802 (bioRxiv, 2021).

B1: REGN10933 (antibody, V domains shown)
VH: QVQLVESGGGLVKPGGSLRLSCAASGFTFSDYYMSWIRQAPGKGLEWVSYITYSGSTIYYADSVKGRFTISRDNAKSSLYLQMNSLRAEDTAVYYCARDRGTTMVPFDYWGQGTLVTVSS
VL: DIQMTQSPSSLSASVGDRVTITCQASQDITNYLNWYQQKPGKAPKLLIYAASNLETGVPSRFSGSGSGTDFTFTISGLQPEDIATYYCQQYDNLPLTFGGGTKVEIK
B2: LY-CoV555 (antibody, V domains shown)
VH: QVQLVQSGAEVKKPGSSVKVSCKASGGTFSNYAISWVRQAPGQGLEWMGRIIPILGIANYAQKFQGRVTITADKSTSTAYMELSSLRSEDTAVYYCARGYYEARHYYYYYAMDVWGQGTAVTVSS
VL: not shown

Target: SARS-CoV-2 S1 WT (in-house) (SARS-CoV-2, UniProt P0DTC2)
Experiment: SPR

Binder	binding result
B1	binds
B2	binds
